Data from paper PMC10691697, “A small molecule exerts selective antiviral activity by targeting the human cytomegalovirus nuclear egress complex” (PLOS Pathogens, 2023).

T1: Myc-tagged HCMV UL53 (residues 50-292) with glycine-serine linker (human cytomegalovirus (HCMV), UniProt P16794 50-292)
T1 construct: source: E. coli BL21 (DE3) RIPL, purified (glutathione-agarose, on-column PreScission digestion, size exclusion chromatography); not shown: GST, N-terminal, cleaved; Myc, N-terminal, kept
T1 sequence: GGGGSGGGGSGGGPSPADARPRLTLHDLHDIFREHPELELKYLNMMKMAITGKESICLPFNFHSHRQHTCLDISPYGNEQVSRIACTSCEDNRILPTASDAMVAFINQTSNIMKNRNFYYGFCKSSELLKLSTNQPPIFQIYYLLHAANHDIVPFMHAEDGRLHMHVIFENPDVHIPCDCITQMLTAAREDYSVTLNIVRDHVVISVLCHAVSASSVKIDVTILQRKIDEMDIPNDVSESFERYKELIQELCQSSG


What was measured:
Assay in all cases: AlphaScreen or HTRF
[1] = biological target: His-tagged HCMV UL50 (residues 1-169) C79S (human cytomegalovirus (HCMV)) (UniProt P16791)
[2] = biological target: His-tagged HCMV UL50 (residues 1-169) C35N (human cytomegalovirus (HCMV)) (UniProt P16791)
[3] = biological target: His-tagged HCMV UL50 (residues 1-169) C54S (human cytomegalovirus (HCMV)) (UniProt P16791)
[4] = biological target: T1, Myc-tagged HCMV UL53 (residues 50-292) …; conditions: both partners purified

Molecule | Kd [1] [nM] | Kd [2] [nM] | Kd [3] [nM] | Kd [4] [nM]
Myc-tagged HCMV UL53 (residues 50-292) with glycine-serine linker (from UniProt P16794 50-292) (domain or fragment) | 340 | 150 | 240 | 
His-tagged HCMV UL50 (residues 1-169) (domain or fragment, also called His-UL50; source: E. coli BL21 (DE3) RIPL, purified (nickel Sepharose, size exclusion chromatography); not shown: His, N-terminal, kept) MEMNKVLHQDLVQATRRILKLGPSELRVTDAGLICKNPNYSVCDAMLKTDTVYCVEYLLSYWESRTDHVPCFIFKNTGCAVSLCCFVRAPVKLVSPARHVGEFNVLKVNESLIVTLKDIEEIKPSAYGVLTKCVVRKSNSASVFNIELIAFGPENEGEYENLLRELYAK |  |  |  | 300
